Assay results published in publication PMC10505908.

T1: HMCES SRAP E127A E127A (human) (UniProt Q96FZ2)
T1 sequence: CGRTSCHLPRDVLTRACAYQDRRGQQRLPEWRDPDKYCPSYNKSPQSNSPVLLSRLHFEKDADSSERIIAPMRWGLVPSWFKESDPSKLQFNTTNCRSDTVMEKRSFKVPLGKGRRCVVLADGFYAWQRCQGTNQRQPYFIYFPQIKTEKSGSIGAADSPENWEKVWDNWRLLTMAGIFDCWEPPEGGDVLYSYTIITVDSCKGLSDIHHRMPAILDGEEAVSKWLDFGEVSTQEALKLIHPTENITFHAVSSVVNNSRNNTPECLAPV

T2: HMCES SRAP R98E R98E (human) (UniProt Q96FZ2)
T2 sequence: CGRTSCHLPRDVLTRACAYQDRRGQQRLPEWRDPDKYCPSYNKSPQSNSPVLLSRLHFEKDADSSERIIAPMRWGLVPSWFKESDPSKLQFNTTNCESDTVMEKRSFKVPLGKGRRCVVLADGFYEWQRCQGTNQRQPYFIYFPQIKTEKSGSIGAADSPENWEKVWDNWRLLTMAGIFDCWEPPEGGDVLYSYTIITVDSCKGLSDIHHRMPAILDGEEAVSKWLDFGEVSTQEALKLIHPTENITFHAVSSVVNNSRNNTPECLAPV

T3: HMCES SRAP E127A (human, UniProt Q96FZ2 2-270, E127A)
T3 sequence: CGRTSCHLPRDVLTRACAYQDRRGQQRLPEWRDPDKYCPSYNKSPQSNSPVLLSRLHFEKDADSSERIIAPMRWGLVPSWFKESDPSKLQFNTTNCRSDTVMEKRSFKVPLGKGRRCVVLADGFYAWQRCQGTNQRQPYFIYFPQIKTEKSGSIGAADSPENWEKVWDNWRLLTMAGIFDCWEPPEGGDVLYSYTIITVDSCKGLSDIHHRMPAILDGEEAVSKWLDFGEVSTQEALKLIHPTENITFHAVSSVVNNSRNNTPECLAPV


How the values were obtained:
[1] = target: T1, HMCES SRAP E127A E127A (human); assay: covalent DPC formation, SDS-PAGE; conditions: N15 = AP site from dU by UDG
[2] = target: T2, HMCES SRAP R98E R98E (human); assay: covalent DPC formation, SDS-PAGE; conditions: N15 = AP site from dU by UDG
HMCES SRAP E127A = target: T3, HMCES SRAP E127A; assay: fluorescence polarization

| Molecule | binding signal (fraction crosslinked) [1] | binding signal (fraction crosslinked) [2] | binding result (HMCES SRAP E127A) |
| --- | --- | --- | --- |
| CCCAAAAAAAAAAANAAAAAAAAAAAACCC / GGGTTTTTTTTTTTTATTTTTTTTTTTGGG [30mer AP site dsDNA] | 0 | 0 |  |
| CCCAAAAAAAAAAATAAAAAAAAAAAACCC (ssDNA) [30mer dT-oligonucleotide] |  |  | binds |
